Test results as given in the DeepSol protein solubility set.

Assay: soluble on expression in E. coli; label from the status in PepcDB or PDB records

Row | Sequence | soluble on expression in E. coli
1 | MGYKTILAVVDNVSNTQKLGEFVVSLADQFSSHVIGLHMETLAAVPLVAPMEIPDPATVQALQDVAHKETTDVGTLFERTLSTNGISHEWRSFVTSVGYASASAIDSARCADLIVARQSSSSALSDSRSDIDGFLYESGRPVLLVPHVLTVAKPIKRVLIAWNGSREATRATFDALPFLKAADSVEIFSVDQSESETQSAGLAGAELAATLARHGVNVTVTSQEKIAGLSPQAAIENRLSDNSIDLLVMGAYGHSRWWELLFGGVTRTLLDSMTAMTLLSR | soluble
2 | MGSDKIHHHHHHMAAKIITVFNQKGGCGKTTVSMHLAGTLGLRGARSMLVDMDEQGTATRWAAQASDERPFPASVIGLAPSGGAMHREVRKFVQDYDYIVVDCPPAVHSAAPSSALLISDLAIIPVVPSPPDLWAAVAAKTLAQHAQVQNETLLIRVMANMVQRRVSIARQAIEILGDDGEVPLLNSMIGSRSAFRECQAIGCTVHGVAGAREAVQEVDMMVDEVLSLIEH | not soluble
3 | PLPATANSHEYLLDNGLKLVVKEDHRSPVVIQQVWYKAGSMDEVNGTTGVAHALEHMMFKGTDSVLAGEFSRKIAAIGGKENAFTSRDYTAYYQQLHQRHLPMAMELESDRMHNLQLTEEAFAKEIQVVMEERRLRTDDQAHSLLYEKMMATAFQTHPYRRPVIGWMNDLENMQVNDARDWYQRWYAPNNAVLVVVGDVDPENVFVLAKKYYGRF | not soluble
4 | KYIDRAGKLAYDSHIAYHRIKGLSQTVLERVQEAVVVINAEGLAVLFNRKAKDLFPALEIGRRAGLSDSAAELWDQASPHTFEYVLGTPGLNAGIRAVPVNKGSDKLLILYIRPQSEIQAEALSVKLAALGQLTANLAHEIRNPMSAIRHANDLLRENMEAGAADPFNAKLCKIIDGNICRIDKMLEDISSLNKRNKTERETIGLIPFWEEFKQEFLLGHPDAADCIRPDIQGGSPTAYFDPAHLRQIMWNLANNAWRHSRKQPGSISVTIRPAQKNTVCILFADRPKCRNTCSNPFTPRRKTAPASGCMSPANWRTPISAI | not soluble
5 | MSDMTDMLEDEMIDPVTGEIIDQKDLAERLLAQAKEQGVSLVGPGGLLNQLTKNVLETALNAELTEYLGHEHGETPLGSNMRNGPRTKTVLTVESGRFRSRSRGTVTGRSSR | not soluble
6 | GPGSMASQPGDALGKIEYWVQYIDCALKHPRPLPAGKHAHRQSLETIPEVAELYHCIYKLYNEEESSVWFREPVNALAQEIFTYYDVVKSPMSLRHILDNIVKGDTYSTALQVMEDVELIWKNCITFNGANSLLATEAGKCRSALDRIRRAYQDDQRITVEEAERLFRVISSMQEQQLIDNIAEYLRRDDPTSIDETGAVNFDMLKRKHFRNLERIVDNYSKSRTRS | soluble
7 | MPPCPPQQNRNRLSQLPVGELGEMELTWQEIMSITELQGLNVPSETSFEPQAPTPYPGPLPPPTYCPCSIHPDAGFSLPPPSYELPASTPHVPELPYSYGNVAIPVSKPLTLSGLLNEPLPDHLALLDIGLPVGQPKPQEDPESDSGLSLNYSDAESLELEGMEAGRRRSEYADMYPVEYPYSLMPNSLAHPNYTLPPTETPLALESSSGPVRAKPAVRGEAGSRDERRALAMKIPFPTDKIVNLPVDDFNELLAQYPLTESQLALVRDIRRRGKNKVAAQNCRKRKLETIVQLERELERLSSERERLLRARGEADRTLEVMRQQLAELYHDIFQHLRDESGNSYSPEEYVLQQAADGAIFLVPRGTKMEATD | soluble
8 | SLPAPTQLFFPLIRNCELSRIYGTACYCHHKHLCCSSSYIPQSRLRYTPHPAYATFCRPKENWWQYTQGRRYASTPQKFYLTPPQVNSILKANEYSFKVPEFDGKNVSSILGFDSNQLPANAPIEDRRSAATCLQTRGMLLGVFDGHAGCACSQAVSERLFYYIAVSLLPHETLLEIENAVESGRALLPILQWHKHPNDYFSKEASKLYFNSLRTYWQELIDLNTGESTDIDVKEALINAFKRLDNDISLEAQVGDPNSFLNYLVLRVAFSGATACVAHVDGVDLHVANTGDSRAMLGVQEEDGSWSAVTLSNDHNAQNERELERLKLEHPKSEAKSVVKQDRLLGLLMPFRAFGDVKFKWSIDLQKRVIESGPDQLNDNEYTKFIPPNYHTPPYLTAEPEVTYHRLRPQDKFLVLATDGLWETMHRQDVVRIVGEYLTGMHHQQPIAVGGYKVTLGQMHGLLTERRTKMSSVFEDQNAATHLIRHAVGNNEFGTVDHERLSKMLSLPEELARMYRDDITIIVVQFNSHVVGAYQNQE | not soluble
9 | MEFGVPRERSGGEIPERRVPLTPQGVRELVASGHRVYVERGAGEGAGFPDEAYEEAGARLVGREEAFGRPQVVLKVARPTLEEVGLMRKNAVLMAFLHLAVAESPLVEAMAQKGLTAIGYELVGEEGRRPVLKAMSEIAGRMAPQLAGRLLEAPQGPGILLSGLVGIPPADVVVLGAGVLGRAAARAFLGAGASVHLLDRALPPLEEAAREAPGAITALVTQDRLERYVAFADVLVGAVAVPGERTPLLLTRGLLARMRPGSVLLDFSIDQGGVSETSRPGVYQEMGVTHFCLPNVPALVPRTASHALTLTLLPYLLRIQEDPLALPGLRQGAYLLFGEKGGHLE | soluble
10 | MSLERTTHQSLNGSWQFQPVAATLHVTPQLQAPAGGWKKINVPDNWYRQGHDISGYAWYQTRFALDAHNASRVAHLVFHGVDYSADVWLNDRYLGHHTGYFQPFEFDVTGLVKPGENQLRVLVNSPLEQPQDWSLHKRLVKGIFSHHDTRPGGAWSERGQEKNTGGIWAPVELQFADRAAVRQLQVTPRKQATEANPQQWVVSTEADIHHDVSHETSVTVEARILPENFKGASFAFKQSQTLQPGGNHIAFSFPVDNPALWWPYEYGHPNLYRLELSVKDASGKLLDQREQVFGVREVKVDDGLQWFINGRRMFLRGTNYIASQWLAEMTPDRYRRDLEMMQAAHINAVRVHAHVTGQDFYELCDRMGILVTQDFPLLWGYSDDPDFIAEARRQAKDMVQLLQRHPSIISWTMHNEPPWDSPWMAQKYPDYHPDINRRLDALLYEDVSKLDTLRVVRKESATKEHEWMGWYFDHWLAFSRPAPTPWSTEFGAQALPNLKSLERMFSKALLWPDTEAKWQVWEYHNFQRKETFEFAGVKQGGNIEEFIANSQHYQARLIQFAVENYRRQRYAPVSAVFQFMFVENWPSINWGIVDYWREPKAGYEALRVAYQPVLPSLEWKQDEYEAGASPRIGLWAINDTWSGFEHASYTVTLYREGKPLDMLKLPLEMLPDSGYKLRDYALPVLEKGQYEIKAEITGQDGKSMGRNQYRFSVKEGHHHHHH | soluble
11 | MGSDKIHHHHHHMARTVVVGLGRSGIGAARLLQAEGHQVTVLERSIEPHLQSLAADLRLQGIAVELGKPLELNSFIPLLDQLDAVVISPGIAWDHPTLTALRQRGIDIDGEMAVAWRSLSHLPWIAITGTNGKTTVTHLLNHVLESNGLRAPMGGNVGHAAAEVALKWRQPNAQRPDWLVMELSSYQIEAAPEIAPRMGIWTNLTPDHLERHGTLDAYRTIKRGLLERSEIRIFNGDDPDLRSQRSSWDKGLWVSSEGPGTANHRADFWIDAEGLVREPQGALFAASALAMPGQHNLQNLLLVTAAARQTGLPAKAIEASLRSFPGVPHRLEQLGHIQQMSVYNDSKATNYDAACVGLKAVPPPAVVLAGGQTKQGDASGWLKQLDQNACAVILFGAGASELQELIKTSGFSGELHCCSNLNAAVTLAIPLGVERQAACLLLSPACASFDQYQDFEARGEHFRSLISSHLTA | not soluble
12 | MITDEHIELFLAQAHRYGDAKLMLCSSGNLSWRIGEEALISGTGSWVPTLAKEKVSICNIASGTPTNGVKPSMESTFHLGVLRERPDVNVVLHFQSEYATAISCMKNKPTNFNVTAEIPCHVGSEIPVIPYYRPGSPELAKAVVEAMLKHNSVLLTNHGQVVCGKDFDQVYERATFFEMACRIIVQSGGDYSVLTPEEIEDLEIYVLGKKTK | soluble
13 | MKVTLPDFRRAGVLVVGDVMLDRYWYGPTCRISPEAPVPVVKVDTIEERPGGAANVAMNIASLGAVARLVGLTGIDDAARALICKLSEVRVRCDFVSVPTHPTITKLRVLSRNQQLIRLDFEEGFDGVDPTPIFERIQLALPQIGALVLSDYAKGALNSVQPMIQLARKANVPVLIDPKGSDFERYRGATLLTPNLSEFEAVVGRCKNEEELVNRGMQLVADFELSALLVTRSEQGMTLLQLGKPPLHLPTQAKEVFDVTGAGDTVIGVLAAALAAGNSLEESCFLANAAAGVVVGKLGTSTVSPIELENAIRGRAETGFGVMDEQQLKIAVAQARQRGEKVVMTNGIFDILHAGHVSYLANARKLGDRLIVAVNSDASTKRLKGEKRPVNPLEQRMVVLGALEAVDWVVPFEEDTPQRLIADILPDLLVKGGDYKPHEIAGSEEVWAAGGEVKVLNFEDGVSTTNIIQSIKNGRG | not soluble
